From the RNAGym collection of RNA variant scans (doi:10.1021/acssynbio.7b00057)

B1: Pistol ribozyme (parent)
chain: GGGUCGUUGUUCCAUAAUCGCGUGGAUAUGGCACGCAAGUUUCUACCGGGCACCGUAAAUGUCCGACUGGAGCCGUUCGGGCGGCUAUAAACAGACCUCAGGCCCGAAGCGUGGCGGCACCUGCCGCCGGUGGUAAAAAAGAUCGGAAGAGCACACGUCU

Variants of: B1
Assay: aptazyme ON/OFF ratio, guanine; higher = stronger switching; co-transcriptional cleavage with and without guanine

Row | Variant | aptazyme ON/OFF ratio
1 | U7A U8C U10G C12A C13G | 1.05
2 | U7A U8C U10C U11G C13U | 1.23
3 | U7A U8C U10C U11G C13A | 1.2
4 | U7A U8C U10C U11G C13G | 1.24
5 | U7A U8G G9A C12A C13G | 1.19
6 | U7A U8G G9A C12A C13A | 1.41
7 | U7A U8G G9A C12A C13U | 1.35
8 | U7A U8C U10C | 2.24
9 | U7A U8C U10G | 1.47
10 | U7A U8C U10C C12A C13A | 1.25
11 | U7A U8C U10C C12A C13U | 1.26
12 | U7A U8C U10C C12A C13G | 1.15
13 | U7A U8C U10A U11C C13U | 1.02
14 | U7A U8C U10A U11C C13G | 1.05
15 | U7A U8C U10A U11C C13A | 1.05
16 | U7A U8C U10A C12G | 1.18
17 | U7A U8C U10A C12U | 1.1
18 | U7A U8C U10A C12U C13U | 1.22
19 | U7A U8C U10A C12U C13G | 1.08
20 | U7A U8C U10A C12U C13A | 1.11
21 | U7A U8C U11G C12A C13U | 1.16
22 | U7A U8C U11G C12A C13G | 1.12
23 | U7A U8C U11G C12A C13A | 1.07
24 | U7A U8C U10G U11C C12U C13G | 1.29

Row | Variant | aptazyme ON/OFF ratio
25 | U7A U8C U10G U11C C12U C13A | 1.36
26 | U7A U8C U10G U11C C12U C13U | 1.51
27 | U7A U8C U10A U11A | 1.18
28 | U7A U8C U10A U11C | 1.03
29 | U7A U8C U10A U11G | 1.17
30 | U7A U8C U10C U11A C12G C13U | 1.21
31 | U7A U8C U10C U11A C12G C13A | 1.17
32 | U7A U8C U10C U11A C12G C13G | 1.22
33 | U7A U8C U10A C12A C13G | 1.15
34 | U7A U8C U10A C12A C13U | 1.22
35 | U7A U8G G9A U10A U11C | 1.03
36 | U7A U8G G9A U10A U11G | 1.8
37 | U7A U8G G9A U10A U11A | 1.8
38 | U7A U8C U10A U11G C12U C13G | 1.16
39 | U7A U8C U10A U11G C12U C13U | 1.26
40 | U7A U8C U10A U11G C12U C13A | 1.28
41 | U7A U8C U10G U11A C12A C13U | 1.32
42 | U7A U8C U10G U11A C12A C13A | 1.28
43 | U7A U8C U10G U11A C12A C13G | 1.15
44 | U7A U8G G9A U10A C12A C13U | 1.37
45 | U7A U8G G9A U10A C12A C13A | 1.27
46 | U7A U8G G9A U10A C12A C13G | 1.06
47 | U7A U8C U10A U11A C12A C13G | 1.15
48 | U7A U8C U10A U11A C12A C13A | 1.07

Row | Variant | aptazyme ON/OFF ratio
49 | U7A U8C U10A U11A C12A C13U | 1.17
50 | U7A U8G C12A | 1.22
51 | U7A U8G C12U | 1.61
52 | U7A U8G C12G | 1.27
53 | U7A U8G G9A U10A U11G C12A | 1.08
54 | U7A U8G G9A U10A U11G C12U | 1.14
55 | U7A U8G G9A U10A U11G C12G | 1.26
56 | U7A U8C U10C U11G C12A C13U | 1.18
57 | U7A U8C U10C U11G C12A C13G | 1.28
58 | U7A U8C U10C U11G C12A C13A | 1.33
59 | U7A U8G G9A U10A C12U | 1.37
60 | U7A U8G G9A U10A C12G | 1.53
61 | U7A U8G G9A U10A C12A | 1.3
62 | U7A U8C U10G U11C C12A C13G | 1.12
63 | U7A U8C U10G U11C C12A C13U | 1.39
64 | U7A U8C U10G U11C C12A C13A | 1.34
65 | U7A U8C U10G U11G C12G C13A | 1.08
66 | U7A U8C U10G U11G C12G C13U | 1.4
67 | U7A U8C U10G U11G C12G C13G | 1.19
68 | U7A U8G G9A U10A C13A | 1.41
69 | U7A U8G G9A U10A C13U | 1.26
70 | U7A U8G G9A U10A C13G | 1.18
71 | U7A U8C U10A U11C C12U C13G | 1.07
72 | U7A U8C U10A U11C C12U C13U | 1.05

Row | Variant | aptazyme ON/OFF ratio
73 | U7A U8C U10A U11C C12U C13A | 1.07
74 | U7A U8C U11C C13G | 1.13
75 | U7A U8C U11C C13A | 1.19
76 | U7A U8C U11C C13U | 1.17
77 | U7A U8C U10C C12A | 1.32
78 | U7A U8C U10C C12G | 1.46
79 | U7A U8C U10C C12U | 3.63
80 | U7A U8C U10A C13G | 1.01
81 | U7A U8C U10A C13U | 1.05
82 | U7A U8C U10A C13A | 1.06
83 | U7A U8G G9A U10A U11C C12U C13G | 1.17
84 | U7A U8G G9A U10A U11C C12U C13A | 1.15
85 | U7A U8G G9A U10A U11C C12U C13U | 1.26
86 | U7A U8C U11C C12U C13U | 1.29
87 | U7A U8C U11C C12U C13G | 1.29
88 | U7A U8C U11C C12U C13A | 1.28
89 | U7A U8C U11G C12G | 1.09
90 | U7A U8C U11G C12U | 1.28
91 | U7A U8C U11G C12A | 1.19
92 | U7A U8C U11C C12A | 1.39
93 | U7A U8C U11C C12U | 1.46
94 | U7A U8C U11C C12G | 1.63
95 | U7A U8C U10A C12G C13A | 1.09
96 | U7A U8C U10A C12G C13G | 1.23

Row | Variant | aptazyme ON/OFF ratio
97 | U7A U8C U10A C12G C13U | 1.26
98 | U7A U8G | 1.13
99 | U7A U8G G9A C12G C13A | 1.19
100 | U7A U8G G9A C12G C13U | 1.37
101 | U7A U8G G9A C12G C13G | 1.81
102 | U7A U8C U10A U11G C12A C13A | 1.17
103 | U7A U8C U10A U11G C12A C13G | 1.15
104 | U7A U8C U10A U11G C12A C13U | 1.22
105 | U7A U8C U10G C12G | 1.12
106 | U7A U8C U10G C12A | 1.21
107 | U7A U8C U10G C12U | 1.27
108 | U7A U8C U10G U11G C12U | 1.34
109 | U7A U8C U10G U11G C12G | 1.04
110 | U7A U8C U10G U11G C12A | 1.25
111 | U7A U8C U10C U11A C12U C13U | 1.27
112 | U7A U8C U10C U11A C12U C13G | 1.19
113 | U7A U8C U10C U11A C12U C13A | 1.21
114 | U7A U8G C12G C13U | 1.38
115 | U7A U8G C12G C13G | 1.27
116 | U7A U8G C12G C13A | 1.38
117 | U7A U8C U10G U11A C12A | 1.42
118 | U7A U8C U10G U11A C12U | 1.11
119 | U7A U8C U10G U11A C12G | 1.37
120 | U7A U8C U10A U11G C13U | 1.31

Row | Variant | aptazyme ON/OFF ratio
121 | U7A U8C U10A U11G C13A | 1.26
122 | U7A U8C U10A U11G C13G | 1.24
123 | U7A U8G G9A C13A | 1.39
124 | U7A U8G G9A C13G | 1.18
125 | U7A U8G G9A C13U | 1.39
126 | U7A U8C U10G C12G C13G | 1.11
127 | U7A U8C U10G C12G C13U | 1.19
128 | U7A U8C U10G C12G C13A | 1.09
129 | U7A U8G C12A C13U | 1.31
130 | U7A U8G C12A C13A | 1.27
131 | U7A U8G C12A C13G | 1.25
132 | U7A U8C U10G U11C C13U | 1.27
133 | U7A U8C U10G U11C C13A | 1.18
134 | U7A U8C U10G U11C C13G | 1.18
135 | U7A U8C U10C U11A C12A C13A | 1.18
136 | U7A U8C U10C U11A C12A C13U | 1.21
137 | U7A U8C U10C U11A C12A C13G | 1.15
138 | U7A U8G G9A U10A U11G C12G C13G | 1.46
139 | U7A U8G G9A U10A U11G C12G C13A | 1.38
140 | U7A U8G G9A U10A U11G C12G C13U | 1.48
141 | U7A U8C U11A C13U | 1.15
142 | U7A U8C U11A C13G | 1.13
143 | U7A U8C U11A C13A | 1.14
144 | U7A U8C U10C U11G | 1.26

Row | Variant | aptazyme ON/OFF ratio
145 | U7A U8C U10C U11A | 1.16
146 | U7A U8C U10C U11C | 1.04
147 | U7A U8C U10A U11C C12A C13U | 1.08
148 | U7A U8C U10A U11C C12A C13A | 1.07
149 | U7A U8C U10A U11C C12A C13G | 1.17
150 | U7A U8C U10C C13G | 1.32
151 | U7A U8C U10C C13U | 2.97
152 | U7A U8C U10C C13A | 1.08
153 | U7A U8C U11A C12U C13A | 1.15
154 | U7A U8C U11A C12U C13U | 1.28
155 | U7A U8C U11A C12U C13G | 1.24
156 | U7A U8G G9A U10A U11C C13A | 1.05
157 | U7A U8G G9A U10A U11C C13U | 1.04
158 | U7A U8G G9A U10A U11C C13G | 1.04
159 | U7A U8G G9A U10A U11A C12G C13U | 1.37
160 | U7A U8G G9A U10A U11A C12G C13G | 1.34
161 | U7A U8G G9A U10A U11A C12G C13A | 1.29
162 | U7A U8G G9A U10A U11A C13U | 1.17
163 | U7A U8G G9A U10A U11A C13A | 1.19
164 | U7A U8G G9A U10A U11A C13G | 1.17
165 | U7A U8G G9A C12G | 1.79
166 | U7A U8G G9A C12A | 1.69
167 | U7A U8G G9A C12U | 1.63
